# Biological target: voltage-gated potassium channel Kv1.3 (UniProt P22001)
# Sequence (P22001 whole entry): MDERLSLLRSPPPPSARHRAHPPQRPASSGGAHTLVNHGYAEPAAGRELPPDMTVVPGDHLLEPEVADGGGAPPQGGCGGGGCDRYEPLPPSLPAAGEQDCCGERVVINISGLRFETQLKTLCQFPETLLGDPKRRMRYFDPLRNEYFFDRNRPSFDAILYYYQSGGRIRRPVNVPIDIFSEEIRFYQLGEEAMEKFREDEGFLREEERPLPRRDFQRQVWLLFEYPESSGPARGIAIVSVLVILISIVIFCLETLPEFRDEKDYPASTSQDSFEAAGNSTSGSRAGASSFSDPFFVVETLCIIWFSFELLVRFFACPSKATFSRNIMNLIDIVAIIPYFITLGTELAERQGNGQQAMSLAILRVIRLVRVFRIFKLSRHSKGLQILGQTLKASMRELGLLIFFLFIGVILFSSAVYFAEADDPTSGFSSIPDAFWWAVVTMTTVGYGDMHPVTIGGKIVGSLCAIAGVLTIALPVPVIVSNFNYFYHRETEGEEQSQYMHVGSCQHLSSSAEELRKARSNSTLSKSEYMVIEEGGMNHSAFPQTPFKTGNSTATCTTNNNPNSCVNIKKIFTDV
substance,measurement,value
mCherry-Vm24,Kd from electrophysiological assays,275 pM

# Source: paper PMC10975748
